Measurements as given in patent US20100267060A1 (BIOSITE, published 2010).

Biological target: T1, Human secretagogin (SEQ ID NO: 1, containing an amino terminal … FLIS tag) (human, UniProt O76038 1-276)
T1 construct: It was biotinylated for the screening ELISA and unlabeled in the sandwich screens; also called Secretagogin protein; human secretagogin-biotin
T1 sequence: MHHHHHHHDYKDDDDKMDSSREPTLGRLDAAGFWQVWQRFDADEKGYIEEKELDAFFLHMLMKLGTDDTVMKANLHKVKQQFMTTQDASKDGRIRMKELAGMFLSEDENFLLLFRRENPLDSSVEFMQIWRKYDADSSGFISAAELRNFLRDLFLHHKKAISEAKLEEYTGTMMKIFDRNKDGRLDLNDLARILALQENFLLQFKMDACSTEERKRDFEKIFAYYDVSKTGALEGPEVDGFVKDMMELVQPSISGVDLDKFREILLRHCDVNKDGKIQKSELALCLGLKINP
Test: method not stated

B1: ST108Z R1ZM 02871 (antibody, V domains shown)
VH: EVQLQQSGPELVKPGTSVKMSCKASGYSFTDYNMHWVKQSHGKSLEWIGYVDPNIGGTSYNPKFKGKATLTVNKSSSTAYMELRSLTSEDSAVYFCARYPNYSGRRYLFAMDYWGQGTSVTVSS
VL: EIVLTQSPAIMSASPGEKVTLTCSASSSISSSYFYWYRQKPGSSPQLWIYGTSNLASGVPARFSGSGSGTSYSLTISSMEAEDAASYFCHQWSSYPLTFGAGTKLELK
notes: Mouse monoclonal antibody from phage-display library ST108ZR1, expressed in E. coli from a plasmid vector
- Ka: ≥ 1e+10 M⁻¹

B2: ST102Z X1ZM 01611 (antibody, V domains shown)
VH: QVQLQQSRPELVRPGASVKISCKAPGYIFTSHWMQWVRQRPGQGLEWIGEIFPGSGSTFYNEKFKDKATLTVDTSSSTAYMQLSSLTSEDSAVYFCARTDYYSSAMDYWGQGTSVTVSS
VL: ETTVTQSPSSLSMAIGEKVTIRCITHTDIDDDMNWYQQKPGEPPKLLISEGNTLRPGVPSRFSSSGFGTDFFFTIENMLSEDVADYYCLQSDTLPLTFGAGTKLELK
notes: Mouse monoclonal antibody from phage-display library ST102ZX1, expressed in E. coli from a plasmid vector
- Ka: ≥ 1e+10 M⁻¹
